Test results from paper PMC4951691.

Columns and labels:
[1] = target: Cryptococcus neoformans Golgi Reassembly and Stacking Protein (CnGRASP) (Cryptococcus neoformans); assay: SEC + other: zone sedimentation in a sucrose gradient; Siegel and Monte model: Rh from SEC combined with the sedimentation coefficient (about 4.2 S) from a 10 to 35% sucrose gradient in 25 mM Hepes/NaOH, 150 mM NaCl, pH 7.4; CnGRASP less than 1 mg/mL; 100,000 g for 4 h at 4 °C
[2] = target: Cryptococcus neoformans Golgi Reassembly and Stacking Protein (CnGRASP) (Cryptococcus neoformans); assay: SEC; Superdex 200 (HR 10/30), Akta purifier; hydrodynamic radius from the partition coefficient against standard proteins (calibration kit LMW/HMW); CHAPS left out of the protein preparation
[3] = target: Cryptococcus neoformans Golgi Reassembly and Stacking Protein (CnGRASP) (Cryptococcus neoformans); assay: dynamic light scattering; Nano-ZS, 20 °C, 25 mM Hepes/NaOH, 150 mM NaCl, 1 mM beta-mercaptoethanol, 10% glycerol, pH 7.4; mass worked out from the Rh of 3.9 nm

Measured: stoichiometry N

Cryptococcus neoformans Golgi Reassembly and Stacking Protein (CnGRASP) (natural protein)
2: all assays above
